Test [1] concerns the target N-terminal tagged 3XFLAG artemin construct (A. fransciscina). Kind of test: native MS; intact complex; 200 mM ammonium acetate, 1-2 uM protein, Waters Synapt G2s-i.
Test [2] has the same target. Put plainly: native MS; 24mer isolated (manual fixed quad profile of 10,000), then collision induced dissociation (argon); released subunits observed; dimers are held by inter-subunit disulfides.
The target is the same in test [3]. Kind of test: cryo-EM structure; single particle cryo-EM, 0.2-1.5 mg/ml protein on Quantifoil grids, 300 keV Titan Krios; C1 ab-initio then octahedral symmetry imposed.
Test [4] has as its target artemin with a C-terminal 6xHis tag (A. fransciscina). Put plainly: native MS; intact complex; 200 mM ammonium acetate, 1-2 uM protein, Waters Synapt G2s-i.
For test [5] the target is unchanged. Kind of test: native MS; 24mer isolated (manual fixed quad profile of 10,000), then collision induced dissociation (argon); released subunits observed; dimers are held by inter-subunit disulfides.
The target is the same in test [6]. Kind of test: native gel or EMSA; Native PAGE of the protein after affinity purification and SEC.
For test [7] the target is unchanged. Kind of test: cryo-EM structure; single particle cryo-EM, 0.2-1.5 mg/ml protein on Quantifoil grids, 300 keV Titan Krios; C1 ab-initio then octahedral symmetry imposed.
The target in test [8] is fluorescent artemin-His (A. fransciscina). Put plainly: native MS; intact complex; 200 mM ammonium acetate, 1-2 uM protein, Waters Synapt G2s-i.
For test [9] the target is unchanged. Kind of test: native MS; 24mer isolated (manual fixed quad profile of 10,000), then collision induced dissociation (argon); released subunits observed; dimers are held by inter-subunit disulfides.

As usually defined, the stoichiometry N is the number of molecules, sites or subunits per partner or assembly. Consider “N-terminal tagged 3XFLAG artemin construct (natural protein)”, for which the stoichiometry N in test [1] worked out at 24; in test [2], 2; in test [3], 24.
Consider “artemin with a C-terminal 6xHis tag (natural protein)”, for which the stoichiometry N in [4] worked out at 24; in [5] it was 2; in test [6], 24; in test [7] it was 24.
Consider “fluorescent artemin-His (natural protein)”, for which the figures for the stoichiometry N in [8] and in [9] were 24 and 2, respectively.

For the origin of these results see article PMC9742257.
